The nature of the data set: soluble fraction after stress (log2 fold change); higher = more stays soluble; pooled small domains, quantitative proteomics. Particulars: stress: 75 degC.
Consider “HMFDVRWEQGYALAAAYAQEYGNLDVPRDYKTADGKKLGRWIQSQEQAYEQKKLSEEQISRLEMIGMQWG”, for which the “soluble fraction (log2)” value is -0.98. As to “HMFEDEPSEREIRISTLLAAFLKQEDGGTAVSRERFLKENSDVAEDLQILLEMADMIQEMAGP”, the “soluble fraction (log2)” value is -0.546. Next, “HMFEKIDINFADIHQLKGLPLNSEQINSIIEYRNQNGFIENIYDLKNVNGISIDKVHELKSYIFIIDV”: -2.58; “HMFENPRALLEMMISLGNEQGLINMARDIVSAGEFRRLELAAGGDRRKLARMLIDHLVEVAPRLP”: -0.915.

In the case of “HMFEQFEVENLQELQQEWGDKFNHNLEMARRAFMNFATPEAVKVLEETGMGNHPELLKVFARIGEVLAED”, the “soluble fraction (log2)” value was -0.968. The value for “HMFERINLIGVNGTTKKRSALVRLLDGEIVKIGVGDSLNGGQVVDISPATLTYLKSGKSIMLTLPK” was -1.79; that for “HMFGQRLRLARKRAGLSMQALAQRMSPPVTAQAISKYEADRMMPSSAVLVGLGKALGVSLDFLMGGQ” was -2.14; that for “HMFHFELNAAKQALEDRKTIDRAKGILMRQRGMSEDDAYKLLRTTAMSQNRKVIDVAQALVTAADLL” was -0.632. Next, “HMFINTVELGRAIKRRREELGLSLRDVADVTNVSASTLSRIENGTGKPDADNIARLTGWLDMPIDRVM”: -0.161. Next, “HMFIRINQTQNSPRKSVQIVESKRDGHKVRTKILRHVGIAMDDVELQKLKSLAQDIIAKMTVETENASKQ”: -0.529; “HMFKINQKVKLIAPLPYLKTSENMPMLRPPDLVAIDEIGEVLSLKSPETVEVRFRRGSFLIDIDKLEKVD”: -1.77. As to “HMFKYLLDTNIVIYVIKKRPIEVMGVFNQNANRMAISAITFSELQHGAEKSVRVQENLNAIEEFTTLIDI”, the “soluble fraction (log2)” value was -0.0448.

Regarding “HMFKYRELLDWAKNRFDDLEVSIAPKALALLVESIGTDLRLLDSEIQKLSMYKPLEMISTNDVEDLVA”, the “soluble fraction (log2)” value is -1.01. Next, “HMFLTDHEVSKVARKRAHAEYLSSLSWRQRTFGDHGERSKNFEAWYKEHSHLYETEKLYKELYKN”: -1.03; “HMFLTPLEEARLVIEEIVIPKNIAVDLSPRPSALRKQQHELIAHYQLKSFSVGNERTKRLRILPKVI”: 0.229.

Turning to “HMFMLQAKRVPVSELENFKGIVAEDVVSQSRALILPRGSNLSWLSSSAMQNLSTRLALEGVESISIYL”, the “soluble fraction (log2)” value was -2.68. Take “HMFMVAGHLSEKNGYFYAVINYNDSLGNRKTKWMSTGLTVKGNKKRAEAILAEKRRTFQPDEPV”: the “soluble fraction (log2)” value was -1.71. On to “HMFNDPTMEDALVNLKGITNEVLSYLSSSKIKKLEELAEMSVPELKDIVENISDDEASALIMEARKPWF”, for which the “soluble fraction (log2)” value was -0.373.

For “HMFNEFEDIPDIISAEGIDPAMREEVAANLKKYYKNPDAMLALAPLEREYYEKLVGILSEKIELKKEN”, the “soluble fraction (log2)” value stood at 0.802. The value for “HMFNFPEEVRVQLAKSEQLRNLLIPMSETVRDALSGEELWFGRTIFNTTSKKIESWTNPGVWVE” was -1.39.

Take “HMFNIIARQEIDEILYEYKIENSEDYKNRDPEELAEIYENIKTVQENHDLSDDDVEELLKSIFSDY”: the “soluble fraction (log2)” value is -1.25. Take “HMFNKTKVPNFIDMNYYEEIEGNSEYDKFNFADPITKNDDTKAPGTVIDQTPEKGTRIDEEKTVIQLTIA”: the “soluble fraction (log2)” value worked out at 0.114. The value for “HMFNRAVSDNEALQVREHFDRDATVMSLAKKYGVSTVTIQRILLGKTYRNVGGPLFDKATLKKRMGN” was -1.2; that for “HMFNVKAYEKAVKSYITKRKPLGEALDEEIMDELSVKFGIVDDALEDLFKQIQDAGISIVDKDGNPSPLAL” was -0.792.

For “HMFPELEPDEQLIADLLRKTNNLQINIITVRTGLPINRVTALLFQMEMKGVVRPLAGGTYHLLV”, the “soluble fraction (log2)” value is -2.14. In the case of “HMFPELSPEEQLIVEVLSKTNDLQVNLISVKTNIDISRLTSLLFTLEMKGVIKTFAGGMYHLL”, the “soluble fraction (log2)” value is -1.19.

With “HMFPSLSPEEQAVVDVLQRNNDLQINMLSVQSGLTISRLTALLFQLEMKGVIKPLAGGMYHLL”, the “soluble fraction (log2)” value is -0.711. Next, “HMFPTLSPEEQRIVDQLAKENDLQANVIALRTALTIPQISALLFSLEMKGMVRLYAGGTYHLI”: -4.6; “HMFQPEQISKLNELETLVLDFIIKSPDKVQKATIRSLATQLHVSTTTIVRMSTKLGFNGWSELKFFLKNQS”: -1.93. The value for “HMFRDFSETLLRKLQAAGGFLPFTDKTDAEAIAEHFQVSKKTFKRAVGTLYKQRRILIDDEGITLIG” was -1.59; that for “HMFRPDYYEILQVDRHASPEVITAAYRQLLSIYNSEQDGNKQMIKLIQEAYGVLGDSQDRWLYDSWLDNN” was -1.34; that for “HMFRSNAERAAHLASALPRAEAELAALQARGAATSENIYLRSSYFDALRYTEELRAAKRAQDALQGA” was 0.195.

On to “HMFSAASSQISSYVRSVVDKAQTYEQAYEILAKNPLGFKLDALEDELFRIIANAEILGADDDE”, for which the “soluble fraction (log2)” value is -0.976. Next, “HMFSNATISGLKAGALVRVYNISGVAVSTLTADAEGKVSVDLNNLPKGVYILSTPSKSFKVLN”: -2.65; “HMFSWRQHLDHFGFSDEIKKRLADAVFLNDDWNEIDRGVLTKEELLARFIENDPGIEKEIYMVMENIN”: -0.835. Next, “HMFYPIAHTLTKLNIRSGPGEQYQKLATFENNHDLVVLTQQNEWVQVRGKSDEQVIIGWVHSSFLSPT”: -2.8; “HMFYQLTENQRRILSSLEQNPRVSAAHLAEEIGISSRKVENNLKKLKEIGLLQRHGSPRKGYWSINQGW”: -0.938; “HMGAAAQLLHAVVLRVPAEDTMKFVSETPELRRYLGAPLGPTAALVRPGQEQELAAALQAHGILVEFDE”: -0.45. Next, “HMGAAITEAEAKQIALDHAGVSESETERMRVKLGRDDGVQEYEVNFYVGNREYDYDINAATGEIRSHDSE”: 0.107. Take “HMGADPTTWPEIDAFVGRVAVTATGLFPSGQVEIDGRRFEARLAFGVAEPGARVVVRRRTDFGLLVEKETR”: the “soluble fraction (log2)” value was -2.38. The value for “HMGADRLVGMTAIVTATIDPNDTDRKGRVQVEGEVWSALSDGRLIITEGSKVRITEMHGTRVRVEAI” was -0.685. The value for “HMGAEWTEMRVWTSTSGSKVTAEASSLTNGQVTLETKSGKRITLSIRKLVEADQKFLEAHFSK” was -1.33; that for “HMGAGLLEPEPLKIEIQETQERLQKLQKALERDTETADSKERIKRAIEAHKARISQLQGLIE” was 0.219; that for “HMGAKVFTVPNLIGKYAIEAGIILKKEGLSEGEVKEENSDKYAAGQIIDQYPAADSPAKENDKINYVVSIG” was -0.066.

“HMGANSAYMAMRDRIQQRLLAELSPGVTRSDTAEVRRVVERIFNETTAELGLPLSRLERNDIFDLVLADIL”: the “soluble fraction (log2)” value was -1.85. In the case of “HMGAPLAVGDSVRVVVSGPRAFVYTAPNGALSGAVRNGAAFTVLELSPDNTWARIGSGEWIKVEFLATG”, the “soluble fraction (log2)” value was -0.919. The value for “HMGATYSQFLDQVDGGNVQKVTFSGDMRSGTNQISYTTRSGQSATITAPMDRDLINILRAKNVEIVQEEP” was 0.232. Next, “HMGAWQQTGFFRNRENAESLAEVLRQRGFSPVVREDTRPSGTVYYAVLVPDDGTTAARLKDAGIDSYPV”: 0.121.

“HMGDDYFTILGIERDATTDEIRSAYRRLSKKIHPDAQGSSALFRQVQEAYETLIDPSSRARYVAELNASQG”: the “soluble fraction (log2)” value stood at 0.00161. With “HMGDERDRLLLARGKRIYQELIGSDRENVAAALREFEAVLAVNNRRAIHVMRQRLAELFGVYEEFLNEEFL”, the “soluble fraction (log2)” value is -4.51. As to “HMGDEVAVTEILVKVGDTVEADQSLLTVEGDKASMEVPAPFAGVVKAIQVQLGDKVVTGSPIMLFEV”, the “soluble fraction (log2)” value came to 0.073.

Regarding “HMGDFNYVMPDFRGLEAHDVSSFLNRNGFLLRPTEHEVSFTQRPGLILMHYPEPGYPFSRSSPITLVVS”, the “soluble fraction (log2)” value is -0.947. Regarding “HMGDGMEVWVNGSPVNLTGKDSFIFVDIFDFIDFDLTASKGRLIVIKVNGEYAEYTRPLHNGDTIEIYWEE”, the “soluble fraction (log2)” value turned out to be 0.0346. As to “HMGDGRVGVITASIAYEYAKEVFPEGTSFLKLGLTFPLPMDLIRDFASKVEKLYVIEELEPL”, the “soluble fraction (log2)” value is -0.122. Take “HMGDHYTALGLSIDATPEEIRSAYFLAARRSHPDANPDAQTTEWFLRVQEAYDILSNPRRRAEYDASLP”: the “soluble fraction (log2)” value is -0.6. In the case of “HMGDKRPIAVGDYVKLEGQDTPGQVLSISGKNATVGFGMLKTTVKLDRLRHTMAKPQTGASAGVR”, the “soluble fraction (log2)” value is -0.293.

On to “HMGDKVTIPNLIDMKLTDAQNQYKPQGFSIVKNGERESDKEAGTILEQDKAAGTEISGKDIRIFVVVSSGS”, for which the “soluble fraction (log2)” value stood at 0.0688. The value for “HMGDLAAAGNHTLEVMGFPQHPDESYRHFVGNGIPKLIERMLPAGHDKETEQKAYDIFMEYYSAHK” was 0.609; that for “HMGDPMAIMQLSSNTTPEYWEAYQKYHIQEYEQSNFIRYVNGISVLDDDFVDKVLITIDQHGRIFSELKS” was -3.21; that for “HMGDSEMPVSEVVRLAKLDQISSIEISGTKLTIITNNLETYTSRIEENSTIIEILQRAGVDIGGLEIYPHG” was -1.53. Next, “HMGDVSGFLRGVLADGPVPAKTVFSEASGAGYSRDQIQRAARKIGVERRKTGMAGGWVWELEP”: -0.148. Regarding “HMGEAYVVPNVKNKTLGEAQLALHNQKLEGLVVDSSYVKGLPDGMILDQNPAGGARVKEGRTIYLTITTS”, the “soluble fraction (log2)” value is -0.0978. With “HMGEDFPYVAYATDSVRLRSKPSSSGDILAVIRQGDAVLITGSDGNYKIVEYEGRKGYVISAFLSQTP”, the “soluble fraction (log2)” value was -1.15. The value for “HMGEDLTIDQLAAEVDMTVRNIRAHQARGLLPPPTIKGRIGYYGPLHRRRLQQIRAMQEEGLNLAAIAKVV” was -0.889; that for “HMGEDPYQMLGLTRQASDEEVRLAWRKLMRENHPDSLASRGVPQEFVKRATEQVAQINAAWDRIKRERG” was -0.25; that for “HMGEELIEIQNLRNKERREAEAILKNLDLVPVIQEQFDDTVPINRVITTDPGPDSTVKKGTTVMIYVSKGP” was 0.415. Next, “HMGEENLKYPLLTDGSVKTTVLEAIDKDEKWLREELAKQGYDDLSKLFLVDYLGGQLVVTPY”: 0.144; “HMGEESIAELISNPKLSDAKRTVILDLLSRGLTVDQIKPYIQSDDPYTAEQLQFELYKLFFTQI”: -0.578; “HMGEGRVRLAQEAANRFMTAMAGDRPGFEEAGRALFAGDRARFHAETEGWPEDIRDHARRLAEPALQ”: 0.144. As to “HMGEIILVPDVKAQGVSDARYTLNQAGLDAVIADSSYNRNSPPGAVLEQMPAPGSKVKSGHAIYLIINTT”, the “soluble fraction (log2)” value worked out at 0.138.

The values above are taken from the domain aggregation screens of Martell et al. (2025).
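Note: 20 min heating vs room temperature control held 20 min.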
